Source: article PMC4022648
“And” between values parts separate entries of the source, which are not always exact repeats. Equal entries are not always repeated.

Tests used:
[1] = biological target: naïve Hsp60 (human Hsp60 with its mitochondrial import signal) (human) (UniProt P10809); assay: SAXS; 20 °C, Guinier analysis; naïve Hsp60 at 23.8 µM
[2] = biological target: naïve Hsp60 (human Hsp60 with its mitochondrial import signal) (human) (UniProt P10809); assay: SAXS; 20 °C, Guinier analysis; naïve Hsp60 at 79.5 µM, GroEL at 52.5 µM
[3] = biological target: naïve Hsp60 (human Hsp60 with its mitochondrial import signal) (human) (UniProt P10809); assay: SEC; HPLC size exclusion, Shodex 806 and 804 in series, 24 °C, 20 mM Tris-HCl pH 8 + 10% glycerol; naïve Hsp60 at 0.8-16.0 µM, compared with GroEL at 7.0 µM and BSA
[4] = biological target: naïve Hsp60 (human Hsp60 with its mitochondrial import signal) (human) (UniProt P10809); assay: static light scattering; Rayleigh ratio at 90° divided by concentration; naïve Hsp60 at 1.6-47.6 µM; compared with ideal lines for tetradecamer (882 kDa) and heptamer (441 kDa)
[5] = biological target: naïve Hsp60 (human Hsp60 with its mitochondrial import signal) (human) (UniProt P10809); assay: native gel or EMSA; Blue native PAGE, 4-16% Bis-Tris gels, sample buffer with 1% digitonin and 0.5% DDM, pH 7.2, Coomassie G-250; naïve Hsp60 at 1.9-20.7 µM, GroEL at 1.0-18.9 µM

With “naïve Hsp60 (human Hsp60 with its mitochondrial import signal) (from UniProt P10809 27-573) (natural protein)” the stoichiometry N [1] was 7 and 14, the stoichiometry N [2] was 14 and the stoichiometry N [3] was 7 and 14. The stoichiometry N [4] was 7 and 14 and the stoichiometry N [5] was 7 and 14.
